Assay results published in patent US20260035452A1 (THE UNIVERSITY OF BIRMINGHAM, priority 2022, published 2026).
Marks after values point to notes of the source that are not given here.

Columns and labels:
[1] = test system: patients; settings: cited from earlier work; for side effect: intestinal inflammation: patients with IBD
[2] = Haematological investigations; assay type: in vivo; settings: mice, 100 μg/mouse
Procedure: To assess the neutralising activity of Ab-IPL-IL-17™, CD-1 mice were injected i.p. with 100 μg/mouse of Ab-IPL-IL-17™, MAB421 or secukinumab as positive controls. After 30 min, an i.p. injection of 10 μg/mouse of IL-17A, IL-17F or IL-17A/F heterodimer was administered. After 2 h blood was collected by intracardiac puncture and serum levels of (A) IL-17A, (B) IL-17F or (C) IL-17A/F heterodimer were quantified by Elisa. (C-F) For the evaluation of immunogenic effects CD-1 mice were injected i.p. with 100 μg of IgG1 isotype antibody (vehicle) or IL-17 neutralising antibodies (bimekizumab, secukinumab, MAB421 or Ab-IPL-IL-17™). In the selected time-point (2 h, 24 h, 72 h, 7 days, 14 days and 21 days) total IgG, IgG1, lymphocytes and platelets levels were determined by Elisa and haematological blood count test, respectively. Data are presented as mean±S.D. for n=5 mice per group. Statistical analysis was conducted by one or two-way ANOVA followed by Bonferroni's for multiple comparisons. *P≤0.05, **P≤0.01, ***P≤0.001 vs IL-17 group; ^#P≤0.05, ^##P≤0.01, ^###P≤0.001, ^####P≤0.0001 vs vehicle group.
(§1) Standard laboratory procedures were used for blood sampling and measurements (95). Haematological investigations, for all experimental conditions, including blood count test, leukocyte, and sidereal formula were performed on citrated and not-anticoagulated blood samples, respectively. Serological tests were performed by CELL-DYN Sapphire purchased from Abbott S.R.L. (Milan, Italy). All procedures were conducted under strictly aseptic conditions.
as §1, with “measurements.” for “measurements (95).”

brodalumab: licensed mAb in the IL-17-IL-17R pathway
side effect: intestinal inflammation [1]: enhanced intestinal inflammation | side effect: suicidal thoughts ([1]; some patients with psoriasis): suicidal thoughts in some patients with psoriasis

Secukinumab: human anti-IL-17A monoclonal antibody
GRA (Granulocytes) ([2]; 2 h): 0.22 ± 0.16 10^3/μL | HCT (Hematocrit) ([2]; 2 h): 29.56 ± 2.26% | HGB (Hemoglobin) ([2]; 2 h): 9.92 ± 1.78 g/dL | MCH (Mean Corpuscular Hemoglobin) ([2]; 2 h): 17.58 ± 1.42 pg | MCV (Mean Cell Volume) ([2]; 2 h): 61.86 ± 8.95 fL | MHCH ([2]; 2 h): 30.60 ± 4.27 g/dL | MID ([2]; 2 h): 0.38 ± 0.31 10^3/μL | MPV (Mean Platelet Volume) ([2]; 2 h): 4.54 ± 0.5771 fL | PCT (Plateletcrit) ([2]; 2 h): 0.27 ± 0.08% | PWD (Platelet Distribution Width) ([2]; 2 h): 16.30 ± 2.15% | RBC (Red Blood Cells) ([2]; 2 h): 5.57 ± 1.18 10^6/μL | RDW (Red blood cells Distribution Width) ([2]; 2 h): 18.14 ± 1.87% | WBC (White Blood Cells) ([2]; 2 h): 3.96 ± 1.19 10^3/μL | GRA (Granulocytes) ([2]; 24 h): 0.24 ± 0.11 10^3/μL | HCT (Hematocrit) ([2]; 24 h): 28.86 ± 1.80% | HGB (Hemoglobin) ([2]; 24 h): 8.88 ± 1.65 g/dL | MCH (Mean Corpuscular Hemoglobin) ([2]; 24 h): 19.10 ± 1.88 pg | MCV (Mean Cell Volume) ([2]; 24 h): 63.60 ± 8.78 fL | MHCH ([2]; 24 h): 31.54 ± 4.15 g/dL | MID ([2]; 24 h): 0.44 ± 0.25 10^3/μL | MPV (Mean Platelet Volume) ([2]; 24 h): 5.16 ± 0.8764 fL | PCT (Plateletcrit) ([2]; 24 h): 0.25 ± 0.09% | PWD (Platelet Distribution Width) ([2]; 24 h): 16.06 ± 2.30% | RBC (Red Blood Cells) ([2]; 24 h): 4.48 ± 1.11 10^6/μL | RDW (Red blood cells Distribution Width) ([2]; 24 h): 18.24 ± 1.12% | WBC (White Blood Cells) ([2]; 24 h): 4.44 ± 1.88 10^3/μL | GRA (Granulocytes) ([2]; 72 h): 0.30 ± 0.16 10^3/μL | HCT (Hematocrit) ([2]; 72 h): 21.30 ± 5.47** % | HGB (Hemoglobin) ([2]; 72 h): 6.92 ± 1.53* g/dL | MCH (Mean Corpuscular Hemoglobin) ([2]; 72 h): 21.78 ± 4.20* pg | MCV (Mean Cell Volume) ([2]; 72 h): 81.12 ± 8.84 fL | MHCH ([2]; 72 h): 30.90 ± 6.72 g/dL | MID ([2]; 72 h): 0.40 ± 0.25 10^3/μL | MPV (Mean Platelet Volume) ([2]; 72 h): 7.80 ± 1.733**** fL | PCT (Plateletcrit) ([2]; 72 h): 0.16 ± 0.06% | PWD (Platelet Distribution Width) ([2]; 72 h): 18.02 ± 2.61% | RBC (Red Blood Cells) ([2]; 72 h): 3.7 ± 1.05* 10^6/μL | RDW (Red blood cells Distribution Width) ([2]; 72 h): 16.86 ± 3.47% | WBC (White Blood Cells) ([2]; 72 h): 5.10 ± 2.34 10^3/μL | GRA (Granulocytes) ([2]; 7 d): 0.24 ± 0.13 10^3/μL | HCT (Hematocrit) ([2]; 7 d): 22.94 ± 4.68* % | HGB (Hemoglobin) ([2]; 7 d): 7.76 ± 1.31 g/dL | MCH (Mean Corpuscular Hemoglobin) ([2]; 7 d): 21.14 ± 4.82 pg | MCV (Mean Cell Volume) ([2]; 7 d): 71.98 ± 8.64 fL | MHCH ([2]; 7 d): 29.50 ± 5.03 g/dL | MID ([2]; 7 d): 0.40 ± 0.16 10^3/μL | MPV (Mean Platelet Volume) ([2]; 7 d): 6.58 ± 1.242* fL | PCT (Plateletcrit) ([2]; 7 d): 0.21 ± 0.05% | PWD (Platelet Distribution Width) ([2]; 7 d): 15.54 ± 2.91% | RBC (Red Blood Cells) ([2]; 7 d): 4.10 ± 0.78 10^6/μL | RDW (Red blood cells Distribution Width) ([2]; 7 d): 18.38 ± 1.90% | WBC (White Blood Cells) ([2]; 7 d): 4.74 ± 1.30 10^3/μL | GRA (Granulocytes) ([2]; 14 d): 0.20 ± 0.10 10^3/μL | HCT (Hematocrit) ([2]; 14 d): 27.88 ± 2.63% | HGB (Hemoglobin) ([2]; 14 d): 9.480 ± 1.36 g/dL | MCH (Mean Corpuscular Hemoglobin) ([2]; 14 d): 17.50 ± 1.09 pg | MCV (Mean Cell Volume) ([2]; 14 d): 63.46 ± 8.13 fL | MHCH ([2]; 14 d): 29.64 ± 4.38 g/dL | MID ([2]; 14 d): 0.38 ± 0.13 10^3/μL | MPV (Mean Platelet Volume) ([2]; 14 d): 5.86 ± 0.5128 fL | PCT (Plateletcrit) ([2]; 14 d): 0.25 ± 0.05% | PWD (Platelet Distribution Width) ([2]; 14 d): 15.98 ± 2.03% | RBC (Red Blood Cells) ([2]; 14 d): 5.98 ± 1.42 10^6/μL | RDW (Red blood cells Distribution Width) ([2]; 14 d): 18.06 ± 2.06% | WBC (White Blood Cells) ([2]; 14 d): 3.08 ± 0.86 10^3/μL | GRA (Granulocytes) ([2]; 21 d): 0.20 ± 0.10 10^3/μL | HCT (Hematocrit) ([2]; 21 d): 29.04 ± 2.30% | HGB (Hemoglobin) ([2]; 21 d): 10.16 ± 1.52 g/dL | MCH (Mean Corpuscular Hemoglobin) ([2]; 21 d): 17.62 ± 1.05 pg | MCV (Mean Cell Volume) ([2]; 21 d): 62.56 ± 7.90 fL | MHCH ([2]; 21 d): 30.34 ± 4.54 g/dL | MID ([2]; 21 d): 0.34 ± 0.15 10^3/μL | MPV (Mean Platelet Volume) ([2]; 21 d): 4.92 ± 0.4207 fL | PCT (Plateletcrit) ([2]; 21 d): 0.28 ± 0.04% | PWD (Platelet Distribution Width) ([2]; 21 d): 16.14 ± 1.80% | RBC (Red Blood Cells) ([2]; 21 d): 6.25 ± 1.18 10^6/μL | RDW (Red blood cells Distribution Width) ([2]; 21 d): 18.34 ± 1.33% | WBC (White Blood Cells) ([2]; 21 d): 3.280 ± 1.47 10^3/μL | side effect: intestinal inflammation [1]: enhanced intestinal inflammation
